Reference: patent publication US11999794B2, “Human mesothelin chimeric antigen receptors and uses thereof” (Novartis AG, priority 2013, dated 2024)
Positions count from the first letter of the chain named.

B1: M5: human anti-mesothelin scFv SEQ ID NO: 43; full CAR SEQ ID NO: 67 (protein)
scFv: QVQLVQSGAEVEKPGASVKVSCKASGYTFTDYYMHWVRQAPGQGLEWMGWINPNSGGTNYAQKFQGRVTMTRDTSISTAYMELSRLRSDDTAVYYCASGWDFDYWGQGTLVTVSSGGGGSGGGGSGGGGSGGGGSDIVMTQSPSSLSASVGDRVTITCRASQSIRYYLSWYQQKPGKAPKLLIYTASILQNGVPSRFSGSGSGTDFTLTISSLQPEDFATYYCLQTYTTPDFGPGTKVEIK
B2: M11: human anti-mesothelin scFv SEQ ID NO: 49; full CAR SEQ ID NO: 73 (protein)
scFv: B1 scFv with V5Q, E12K, D31G, K63N, S84R, V138R

Experiments:
[1] = target: T1, biotinylated mesothelin ECD (Homo sapiens, UniProt Q13421); assay: Surface plasmon resonance (Biacore T200) binding affinity of purified scFvs; settings: for Kd: 1:1 Binding or Steady State Affinity fit
T1 construct: made in house; host or cells: HEK293F (transient)
T1 sequence (Q13421 with tags, fused parts or gaps): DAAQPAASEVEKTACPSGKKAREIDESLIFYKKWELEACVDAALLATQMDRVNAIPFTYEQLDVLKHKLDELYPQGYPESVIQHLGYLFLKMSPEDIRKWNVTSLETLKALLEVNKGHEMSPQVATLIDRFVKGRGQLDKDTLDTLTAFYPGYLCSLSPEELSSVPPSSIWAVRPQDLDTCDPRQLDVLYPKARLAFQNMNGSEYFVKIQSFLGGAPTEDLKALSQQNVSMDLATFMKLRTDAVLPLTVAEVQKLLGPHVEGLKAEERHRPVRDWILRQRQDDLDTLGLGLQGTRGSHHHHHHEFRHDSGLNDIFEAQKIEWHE
Procedure: Binding affinity of purified scFvs was measured on a Biacore T200 system. Briefly, recombinant human biotinylated mesothelin ECD was immobilized on a streptavidin (SA) sensor chip surface at a density of 150 RU. Purified scFv was injected over the chip under constant flow rate at three-fold serial dilutions. Association and dissociation rates of the protein complex were monitored for 270 seconds and 400 seconds, respectively. Double referencing was performed against a blank immobilized flow cell and a buffer blank. Affinity was determined with a Langmuir 1:1 binding model when possible, for those scFVs where accurate fitting was not possible due to fast on and off rates, the steady state model was used.

Ovcar3 = assay: Luciferase-based killing assay; assay type: cell-based, human; settings: for killing of target tumor cells: E:T 10:1 to 1:1, 20 hours, FIG. 16A; for specific killing within the panel of human meso CARs: FIGS. 17A and 17B
Procedure: The ability for the CART-MSLN to target and kill tumor cells was also assessed in vitro. A luciferase-based assay was used, with tumor cell lines expressing luciferase reporters. Target cells (tumor cells) were plated at 20,000 targets/well. CART-MSLN were added at varying effector:target ratios, from 10:1, 5:1, 2.5:1, and 1:1. The cells were cultured for 20 hours, and the luminescence of each well was detected to determine the percentage of target cells killed. Luciferase-expressing Ovcar3 (ovarian cancer) and U87 mg (glioblastoma) cell lines were used as target cells.

Ovcar8 [2] = assay: Ovcar8 xenograft model (Example 8); assay type: in vivo, NSG mice; settings: 2×10^6 CART cells i.v. at day 14
Procedure: Anti-tumor activity of CART-MSLN was assessed in vivo in an Ovcar8 xenograft model. 10×10^6 Ovcar8 cells were implanted subcutaneously on day 0 in NSG mice. At day 14, 2×10^6 CART cells (CARTs expressing M5, M11, M17, M21, SS1, and CD19, or untransduced cells; 10×10^6 total T cells) in a 100 μl dose was administered intravenously. Mice and tumors were monitored for about 40 days after tumor cell implantation.
A second in vivo xenograft experiment was performed to assess the anti-tumor activity of a second set of CART-MSLN cells. 10×10^6 OVCAR8-mcherry cells were injected into NSG mice. Once tumors were 150-250 mm^2, mice were randomized into treatment groups. CARTs expressing M12, M14, M16, M23, ss1, CD19, or untreated cells were injected at a dose of 10×10^6 T cells in 100 μl. About 40% of T cells were expressing CAR, and therefore at the administered dosage, about 4×10^6 CART cells were delivered to each animal.

Ovcar8 [3] = assay: OVCAR8 subcutaneous xenograft, single and double dose (Example 17); assay type: in vivo, NSG mice; settings: for tumor growth / anti-tumor activity, single dose: 4×10^6 CAR+ T cells on day 14; for tumor growth / anti-tumor activity, double dose: 4×10^6 CAR+ T cells on days 14 and 19; for delta T/C value: day 52, versus Isotype group, single dose; for regression value / Regression (%) / Delta T/C (%): day 52; for Regression (%): double dose (second identical dose 5 days later); for Delta T/C (%): single dose of 4×10^6 CAR T cells i.v. on day 14, versus the Isotype group
Procedure: Cell line: OVCAR8 is a human ovarian cancer cell line that was derived from a patient with ovarian adenocarcinoma, and has been transduced to express mCherry. Cells were grown in RMPI medium containing 10% fetal bovine serum. This cell line grows adherent in tissue culture flasks. This cell line forms tumors in mice when implanted subcutaneously in the flank and mixed with matrigel. The addition of matrigel to the cells during the implantation allow for a matrix to develop in the flank of the mouse that provides a structure for the tumor cells to start growing on. Over 10-12 days, the matrigel plug degrades and the solid tumor that remains is made up of tumor cells and surrounding stromal cells. The OVCAR8 cells have been modified to express mCherry, so that that tumor cell growth can also be monitored by imaging the mice.
Mice: 6 week old NSG (NOD.Cg-Prkdc^scidIl2rg^tm1Wjl/SzJ) mice were received from the Jackson Laboratory (stock number 005557). Animals were allowed to acclimate in the Novartis NIBRI animal facility for at least 3 days prior to experimentation. Animals were handled in accordance with Novartis ACUC regulations and guidelines. Electronic transponders for animal identification were implanted on the left flank one day prior to tumor implantation. Mice were shaved on the right flank prior to tumor implantation.
Tumor implantation: OVCAR8 cells in log phase were harvested after tyrpsinization with 0.25% trypsin-EDTA. The cells were washed in 50 ml falcon tubes at 1200 rpm for 5 minutes, once in growth media and then two times in cold sterile PBS. The cells were resuspended in PBS at a concentration of 100×10^6 per ml and kept on ice. The PBS solution containing the cells was then mixed 1:1 with matrigel, resulting in a final concentration of 50×10^6 cells per ml of PBS-matrigel. The cells were placed on ice and immediately implanted in mice. Tumors were implanted subcutaneously in 200 ul on the right flank.
The OVCAR8 model endogenously expresses mesothelin and thus, can be used to test the in vivo efficacy of mesothelin directed CAR T cells. This model grows well when implanted subcutaneously in the flank of mice and can be calipered for tumor volume measurements. Upon implantation of 10×10^6 tumor cells in a 50:50 mix of PBS and matrigel, the tumors establish and can be accurately measured in one week. Within 13-15 days, the mean tumor volume is 100-200 mm^3, with tumors reaching an endpoint volume (1000-1200 mm^3) by 60-65 days. Anti-tumor activities of therapeutic agents are often tested once tumors are fully engrafted and matrigel resorbed. Thus, there is a large window with this model during which the anti-tumor activity of the CAR T cells can be observed.
CAR T cell dosing: Mice were dosed with 4×10^6 CART cells (13.3×10^6 total T cells) 14 days after tumor implantation. Cells were partially thawed in a 37 degree Celsius water bath and then completely thawed by the addition of 1 ml of cold sterile PBS to the tube containing the cells. The thawed cells were transferred to a 15 ml falcon tube and adjusted to a final volume of 10 mls with PBS. The cells were washed twice at 1000 rpm for 10 minutes each time and then counted on a hemocytometer. T cells were then resuspended at a concentration of 133×10^6 cells per ml of cold PBS and kept on ice until the mice were dosed. The mice were injected intravenously via the tail vein with 100 ul of the T cells for a dose of 4×10^6 CAR T cells (13.3×10^6 total T cells) per mouse. Seven mice per group were either treated with 100 ul of PBS alone (PBS) or T cells transduced with an isotype CAR (Isotype). 14 mice per group were treated with either the SS1 mesothelin CAR T cells, M5 mesothelin CAR T cells, or M11 mesothelin CART cells. Five days later the SS1, M5, and M11 groups were split in half and seven mice in each group were treated with an identical second dose of the CAR T cells. […]

Molecule	ka ([1]; 1:1 Binding fit) [M⁻¹ s⁻¹]	kd ([1]; 1:1 Binding fit) [s⁻¹]	Kd [1] [nM]	killing of target tumor cells (Ovcar3)	specific killing within the panel of human meso CARs (Ovcar3)	anti-tumor activity, first xenograft experiment (Ovcar8 [2])	tumor growth / anti-tumor activity, single dose (Ovcar8 [3])	tumor growth / anti-tumor activity, double dose (Ovcar8 [3])	delta T/C value (Ovcar8 [3]) [%]	regression value (Ovcar8 [3]; double dose) [%]	mice with complete regression (Ovcar8 [3]; double dose)	Regression (%) (Ovcar8 [3])	Delta T/C (%) (Ovcar8 [3])
B1	42000	0.00113	26.9	performed similarly well in killing target tumor cells	highest specific killing of Ovcar3 cells	strong anti-tumor activity	clear anti-tumor activity	regression as opposed to tumor growth inhibition	30.28	−63.90	four out of seven mice	−63.90	30.28
B2	–	–	64.7	performed similarly well in killing target tumor cells	highest specific killing of Ovcar3 cells	strong anti-tumor activity	clear anti-tumor activity	regression as opposed to tumor growth inhibition	52.91	−15.80	–	−15.80	52.91
